Assay results reported in US20210269525A1 (BIOCYTOGEN PHARMACEUTICALS BEIJING, published 2021).
Like-named read-outs stand apart in the source and are kept apart here.

Key:
[1] = target: T1, human CD3e (T-cell surface glycoprotein CD3 epsilon chain) (human, UniProt P07766 23-207); experiment: cell-based or functional assay
[2] = target: T2, Histidine-tagged human CD3e protein (human, UniProt P07766 23-126); experiment: SPR (Biacore), human CD3e
T2 construct: also called hCD3e-His; not shown: His tag

[3] = target: T3, Cynomolgus CD3 epsilon Protein, His Tag (Acrobiosystems, Cat #CDE-05226) (cynomolgus (Macaca fascicularis), UniProt Q95LI5 22-117); experiment: SPR (Biacore), cynomolgus CD3e His tag
T3 construct: also called monkey CD3e; not shown: His tag
T3 sequence: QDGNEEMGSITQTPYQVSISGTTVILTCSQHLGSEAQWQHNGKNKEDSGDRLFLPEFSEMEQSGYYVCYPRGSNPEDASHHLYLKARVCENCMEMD
Method: The binding affinity of the anti-hCD3e antibodies with monkey CD3e (Cynomolgus CD3 epsilon Protein (SEQ ID NO: 39 AA Gln 22-Asp 117), His Tag, Acrobiosystems, Cat #CDE-05226) were also measured using surface plasmon resonance (SPR) using Biacore (Biacore, INC, Piscataway N.J.) by the methods as described in the examples.

[4] = target: T1, human CD3e (T-cell surface glycoprotein …); experiment: flow cytometry, human PBMC, antibody 1 ug/mL, anti-human IgG Fc-Alexa Fluor647 (1:500), anti-hTcRβ-PerCP (1:30)
Method: (§1) PBMC cells were collected from a human subject. After being thawed, the cells were cultured for 3-4 hours. The medium was then discarded, and the cells were resuspended in phosphate-buffered saline (PBS). The cell concentration was then adjusted to 2×10⁶/25 μl PBS.
(§2) A 96-well plate was prepared. 25 ul of cell suspension was added to each well. […] The cells and the antibodies were incubated. After centrifuge, the residues were discarded. The samples were washed again. 25 ul of PBS was then added to each well to resuspend cells.
(§3) Anti-human IgG Fc-Alexa Fluror647 (1:500) and anit-hTcRβ PerCP (1:30) were then added to each well. The cells and the antibodies were incubated and then the cells were washed again by PBS. 300 ul of PBS was then added to each well to resuspend the cells. FACS was performed.

[5] = target: T1, human CD3e (T-cell surface glycoprotein …); experiment: flow cytometry, human PBMC, antibody 0.1 ug/mL, anti-human IgG Fc-Alexa Fluor647 (1:500), anti-hTcRβ-PerCP (1:30)
Method: as §1, §2, §3

[6] = target: T1, human CD3e (T-cell surface glycoprotein …); experiment: flow cytometry, human PBMC, antibody 0.01 ug/mL, anti-human IgG Fc-Alexa Fluor647 (1:500), anti-hTcRβ-PerCP (1:30)
Method: as §1, §2, §3

[7] = target: T4, monkey CD3e (Macaca fascicularis) on PBMC (Macaca fascicularis, UniProt Q95LI5 22-198); experiment: flow cytometry, Macaca fascicularis PBMC, antibody concentration not given, anti-human IgG Fc-Alexa Fluor647 (1:500), anti-hTcRβ-PerCP (1:30)
T4 construct: Target on PBMC from Macaca fascicularis; also called mfCD3e; monkey PBMC
Method: A 96-well plate was prepared. 25 ul of cell suspension was added to each well. Anti-hCD3 antibodies were added to the 96-well plate. The cells and the antibodies were incubated for 15 minutes at 4° C. 185 ul PBS was then added to each well. After centrifuge at 2000 rpm for 5 minutes, the medium was discarded. The samples were washed again. 25 ul of PBS was then added to resuspend cells.
Anti-human IgG Fc-Alexa Fluror647 (1:500) and anti-hTcRβ PerCP (1:30) were then added to each well. The cells and the antibodies were incubated for 15 minutes at 4° C. 185 ul PBS was then added to each well. After centrifuge, the residues were discarded. The samples were washed again. 25 ul of PBS was then added to resuspend cells. […] In contrast, anti-hTcRβ PerCP cannot bind to monkey PBMC.

[8] = target: T1, human CD3e (T-cell surface glycoprotein …); experiment: cell-based or functional assay; remark: listed apart in the source
[9] = target: T2, Histidine-tagged human CD3e protein; experiment: SPR (Biacore), human CD3e; remark: listed apart in the source
[10] = target: T1, human CD3e (T-cell surface glycoprotein …); experiment: flow cytometry, human PBMC, antibody 1 µg/mL, anti-human IgG Fc-Alexa Fluor647 (1:500), anti-hTcRβ-PerCP (1:30)
Method: as §1, §2, §3

[11] = target: T1, human CD3e (T-cell surface glycoprotein …); experiment: flow cytometry, human PBMC, antibody 10 µg/mL, anti-human IgG Fc-Alexa Fluor647 (1:500), anti-hTcRβ-PerCP (1:30)
Method: as §1
A 96-well plate was prepared. 25 ul of cell suspension was added to each well. Anti-hCD3e antibodies with different combinations of humanized 1B1 heavy chain variants and humanized 1B1 light chain variants were diluted to 20 ug/ml (2×) in PBS, and were added to the 96-well plate. The cells and the antibodies were incubated. After centrifuge, the residues were discarded. The samples were washed again. 25 ul of PBS was then added to each well to resuspend cells.
as §3

[12] = target: T1, human CD3e (T-cell surface glycoprotein …); experiment: flow cytometry, human PBMC, antibody 0.1 µg/mL, anti-human IgG Fc-Alexa Fluor647 (1:500), anti-hTcRβ-PerCP (1:30)
Method: as §1, §2, §3

| Binder | EC50, luciferase of Jurkat-Luc-NFAT cells; antibody from supernatant [1] [µg/mL] | EC50, luciferase of Jurkat-Luc-NFAT cells; purified antibody [1] [µg/mL] | Kd [2] [nM] | koff [2] [s⁻¹] | kon [2] [M⁻¹ s⁻¹] | Kd [3] [nM] | koff [3] [s⁻¹] | kon [3] [M⁻¹ s⁻¹] | upper left quadrant, percent of cells AF647+ / hTcRβ-PerCP- [4] [%] | upper right quadrant, percent of cells AF647+ / hTcRβ-PerCP+ [4] [%] | upper left quadrant, percent of cells AF647+ / hTcRβ-PerCP- [5] [%] | upper right quadrant, percent of cells AF647+ / hTcRβ-PerCP+ [5] [%] | upper left quadrant, percent of cells AF647+ / hTcRβ-PerCP- [6] [%] | upper right quadrant, percent of cells AF647+ / hTcRβ-PerCP+ [6] [%] | upper left quadrant, percent of cells AF647+ / hTcRβ-PerCP- [7] [%] | upper right quadrant, percent of cells AF647+ / hTcRβ-PerCP+ [7] [%] | other results |
| --- | --- | --- | --- | --- | --- | --- | --- | --- | --- | --- | --- | --- | --- | --- | --- | --- | --- |
| 10A4-H2K3-IgG1-LALA (antibody, V domains shown, Humanized; human IgG1 with LALA mutations; also called H2K3 (humanized 10A4)) VH: QVQLVQSGAEVKKPGASVKISCKASGYTFTSYYIHWVRQAPGQRLEFIGWIYPGNVNAKYNEKFKGRATITTDKSASTAYMELSSLRSEDTAVYYCAIKGGNYDWGQGTLVTVSS VL: not shown | 0.416 | 0.472 | 1.38 | 8.85e-05 | 63900 | 9.12 | 0.000497 | 54500 | 14.9 | 74.2 | 7.13 | 45.6 | 2.8 | 14.5 | 51.1 | 2.59 | – |
| 10A4-H1K2-IgG1-LALA (antibody, V domains shown, Humanized; human IgG1 with LALA mutations; also called H1K2 (humanized 10A4)) VH: QVQLVQSGAEVKKPGASVKVSCKASGYTFTSYYIHWVRQAPGQRLEFIGWIYPGNVNAKYNEKFKGRVTITTDKSASTAYMELSSLRSEDTAVYYCAIKGGNYDWGQGTLVTVSS VL: DVVMTQSPLSLPVTLGQPASISCQSSQSLLDSDGKTYLNWLQQRPGQSPRRLIYLVSKLGSGVPDRFSGSGSGTDFTLKISRVEAEDVGVYYCWQGTHFPRTFGGGTKLEIK | 0.272 | 0.726 | 2.14 | 0.000127 | 59300 | 5.18 | 0.000298 | 57500 | 13.5 | 75.8 | 10.8 | 57.8 | 2.53 | 11.6 | 47 | 2.56 | – |
| 1B1-H3K1-IgG1-LALA (antibody, V domains shown, Humanized; human IgG1 with LALA mutations; also called H3K1 (humanized 1B1)) VH: QVQLVQSGAEVKKPGASVKLSCKASGYTFTSYWMHWVRQRHGQGLEWIGNIYPDSGTTNYGEKFKTRVTLTVDTSTSTAYMELSSLRSEDTAVYYCTRDTSGQYYFDYWGQGTLVTVSS VL: DIVMTQSPDSLAVSAGERATMNCKSSQSLLNSRTRKNYLAWYQHKPGQSPKLLIYWASTRESGVPDRFSGSGSGTDFTLTISSLQAEDVAVYYCVQSFSLRAFGGGTKVEIK | – | – | – | – | – | – | – | – | – | – | – | – | – | – | 78.8 | 18.3 | EC50, luciferase of Jurkat-Luc-NFAT cells; antibody from supernatant [8]: > 3.06 µg/mL; Kd [9]: 1.37 nM; koff [9]: 0.000914 s⁻¹; kon [9]: 665000 M⁻¹ s⁻¹; upper left quadrant, percent of cells AF647+ / hTcRβ-PerCP- [10]: 11%; upper right quadrant, percent of cells AF647+ / hTcRβ-PerCP+ [10]: 61.2%; upper left quadrant, percent of cells AF647+ / hTcRβ-PerCP- [11]: 7.75%; upper right quadrant, percent of cells AF647+ / hTcRβ-PerCP+ [11]: 65.2%; upper left quadrant, percent of cells AF647+ / hTcRβ-PerCP- [12]: 11.8%; upper right quadrant, percent of cells AF647+ / hTcRβ-PerCP+ [12]: 55.5% |
